What was measured:
[1] = molecular target: human atypical chemokine receptor 3 (ACKR3) (human) (UniProt P25106); assay: cell-based or functional assay
[2] = molecular target: human atypical chemokine receptor 3 (ACKR3) (human) (UniProt P25106); assay: binding competition with CXCL12-AF647, flow cytometry

human atypical chemokine receptor 3 (ACKR3) (human), sequence (P25106 whole entry): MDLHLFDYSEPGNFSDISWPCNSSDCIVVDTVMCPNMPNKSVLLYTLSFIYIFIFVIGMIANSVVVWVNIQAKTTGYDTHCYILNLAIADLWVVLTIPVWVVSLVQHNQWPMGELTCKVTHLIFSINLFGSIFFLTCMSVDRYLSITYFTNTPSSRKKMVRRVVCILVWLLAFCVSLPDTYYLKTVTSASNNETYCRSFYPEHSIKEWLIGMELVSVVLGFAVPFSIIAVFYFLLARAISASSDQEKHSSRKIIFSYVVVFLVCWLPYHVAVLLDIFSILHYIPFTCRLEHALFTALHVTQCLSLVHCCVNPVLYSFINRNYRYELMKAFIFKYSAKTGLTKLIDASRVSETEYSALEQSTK

Substance	EC50, β-arrestin recruitment (NanoBiT) [1] [nM]	IC50 [2] [nM]
CXCL11 (C-X-C motif chemokine 11) (from UniProt O14625 22-94) (ligand)	2.2	
nociceptin 1-13 amide		> 10000
